# Assay results from paper PMC5289633.
# Target: Bio-SAP97 (SAP97 with N-terminal tag for in vivo biotinylation) (UniProt Q62696)
# Test: pull-down; streptavidin-sepharose pull-down of biotin-tagged SAP97 or PSD-95 from Triton X-100 extracts (TNE buffer, pH 7.5, 120 mM NaCl, 4°C) of co-transfected HEK293 or HEK293T cells; western blot
# Sequence of UniProt Q62696 (Q62696 whole entry): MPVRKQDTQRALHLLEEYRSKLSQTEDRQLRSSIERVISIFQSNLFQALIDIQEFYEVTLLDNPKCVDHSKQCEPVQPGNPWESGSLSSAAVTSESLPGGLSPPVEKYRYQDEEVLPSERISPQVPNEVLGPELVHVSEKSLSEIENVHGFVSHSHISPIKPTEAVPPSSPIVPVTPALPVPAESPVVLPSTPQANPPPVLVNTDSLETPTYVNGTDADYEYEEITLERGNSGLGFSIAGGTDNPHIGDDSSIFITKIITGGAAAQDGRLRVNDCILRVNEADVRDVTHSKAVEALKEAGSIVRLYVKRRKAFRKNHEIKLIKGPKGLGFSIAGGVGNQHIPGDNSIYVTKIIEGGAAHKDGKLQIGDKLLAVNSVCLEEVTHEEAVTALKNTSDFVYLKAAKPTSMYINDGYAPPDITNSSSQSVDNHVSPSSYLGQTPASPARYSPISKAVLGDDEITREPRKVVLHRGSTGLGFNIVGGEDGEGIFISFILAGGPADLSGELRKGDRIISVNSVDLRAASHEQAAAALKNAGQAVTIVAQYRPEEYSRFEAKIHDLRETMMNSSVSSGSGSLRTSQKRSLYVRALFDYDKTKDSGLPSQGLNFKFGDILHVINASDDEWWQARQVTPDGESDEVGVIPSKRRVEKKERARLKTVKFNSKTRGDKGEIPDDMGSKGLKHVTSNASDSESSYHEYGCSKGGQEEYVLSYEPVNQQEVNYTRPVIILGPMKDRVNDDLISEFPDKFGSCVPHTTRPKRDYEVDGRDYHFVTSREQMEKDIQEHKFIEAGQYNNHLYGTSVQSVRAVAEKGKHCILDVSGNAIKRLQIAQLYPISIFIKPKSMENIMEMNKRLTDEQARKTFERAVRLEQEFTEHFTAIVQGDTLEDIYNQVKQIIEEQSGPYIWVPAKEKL
substance,measurement,value
N-terminally GFP-tagged GluA1 C893S mutant (receptor),percent decrease in association against wt GluA1,60 to 70%
